Test results reported in patent US20250296960A1, “PEPTIDE COMPOSITIONS AND METHODS OF USE THEREOF” (priority 2022, published 2025).
Read-outs that look alike come from different tables or passages of the source. Numbered stars: 1 amine (or outer) side, 2 acyl side, 3 side chain; on linkers, the order of the positions; unused ones are H or OH. Square brackets hold non-standard residues; d marks the D form. Primed or numbered codes have the meaning given here. Side chains are listed from the residue outwards. Ends that are not written are not given here. Peptide text beside a SMILES is read from it. * marks the point of attachment. C18 = C18 fatty acid (C16-C22 fatty acids conjugated via γGlu/8-amino-3,6-dioxaoctanoic acid spacers); C18″ = C18 fatty acid moiety (of 2OEG-γGlu-C18, K*); Biotin = O=C1N[C@H]2[C@H](CS[C@H]2CCCCC(=O)*)N1; C18 diacid = O=C(O)CCCCCCCCCCCCCCCCC(=O)*; γGlu = O=C(O)[C@H](CCC(=O)[*:2])N[*:1]; AEEA = NCCOCCOCC(=O)O; Aib = CC(C)(N)C(=O)O

B1: Peptide No. 5-2 (peptide)
peptide: Y[Aib]QGTFTSDYSKYLDYMMQRDFVQWLIEGGPSSGAPPPSC-NH2
B2: Peptide No. 5-1E (peptide)
peptide: Y[Aib]QGTFTSDK([AEEA-AEEA-γGlu-C18″])SKYLDYMMARDFVQWLIEGGPSSGAPPPS-NH2
B3: Peptide No. 5-2D (peptide)
peptide: Y[Aib]QGTFTSDYSK([AEEA-AEEA-γGlu-C18″])YLDYMMQRDFVQWLIEGGPSSGAPPPS-NH2
B4: Peptide No. 5-3 (peptide)
peptide: Y[Aib]QGTFTSDYSKLLDYMMQRDFVQWLLEGGPSSGAPPPSC-NH2
B5: Peptide No. 5-1F (peptide)
peptide: Y[Aib]QGTFTSDYSKYLDYK([AEEA-AEEA-γGlu-C18″])MARDFVQWLIEGGPSSGAPPPS-NH2
B6: SEQ ID NO. 99 (peptide)
peptide: Y[Aib]QGTFTSDYSK([AEEA-AEEA-γGlu-C18])LLDYMMQHDFVQWLLEGGPSSGAPPPS-NH2
B7: Peptide No. 5-1D (peptide)
peptide: Y[Aib]QGTFTSDYSK([AEEA-AEEA-γGlu-C18″])YLDYMMARDFVQWLIEGGPSSGAPPPS-NH2
B8: Peptide No. 5-5 (peptide)
peptide: H[Aib]QGTFTSDYSKLLDYMMQRDFVQWLLEGGPSSGAPPPSC-NH2
B9: Peptide No. 5-1 (peptide)
peptide: Y[Aib]QGTFTSDYSKYLDYMMARDFVQWLIEGGPSSGAPPPSC-NH2
B10: Peptide No. 5-5D (peptide)
peptide: H[Aib]QGTFTSDYSK([AEEA-AEEA-γGlu-C18″])LLDYMMQRDFVQWLLEGGPSSGAPPPS-NH2

Tests used:
[1] = molecular target: T1, human GIPR (Homo sapiens, UniProt P48546); test: cAMP assay (HitHunter cAMP) in GIPR-expressing CHO-K1 cells (GIPR+ cells); assay type: cell-based; conditions: Table 31
T1 construct: host or cells: CHO-K1
T1 sequence (P48546 22-466): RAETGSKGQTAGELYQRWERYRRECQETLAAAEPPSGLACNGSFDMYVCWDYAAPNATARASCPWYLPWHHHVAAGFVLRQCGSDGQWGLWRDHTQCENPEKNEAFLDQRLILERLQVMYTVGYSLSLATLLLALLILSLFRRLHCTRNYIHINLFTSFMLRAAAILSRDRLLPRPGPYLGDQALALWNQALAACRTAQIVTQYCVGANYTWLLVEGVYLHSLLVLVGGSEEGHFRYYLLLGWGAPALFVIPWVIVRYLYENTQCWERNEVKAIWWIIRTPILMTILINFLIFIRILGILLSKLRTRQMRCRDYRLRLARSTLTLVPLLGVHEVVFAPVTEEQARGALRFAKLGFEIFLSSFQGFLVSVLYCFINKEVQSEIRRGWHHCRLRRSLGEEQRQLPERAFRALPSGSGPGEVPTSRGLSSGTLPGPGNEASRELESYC
Procedure, shortened: (§1)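 CHO-K1 cells expressing each receptor were plated overnight, then treated with peptide in cAMP assay buffer for 30 min at 37 °C. cAMP was detected by antibody plus detection solution (1 h) and Solution A (3 h), both at room temperature in the dark. Luminescence was the read-out.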

[2] = molecular target: T2, human GCGR (Homo sapiens, UniProt P47871); test: cAMP assay (HitHunter cAMP) in GCGR-expressing CHO-K1 cells (GCGR+ cells); assay type: cell-based; conditions: Table 31
T2 construct: host or cells: CHO-K1
T2 sequence (P47871 26-477): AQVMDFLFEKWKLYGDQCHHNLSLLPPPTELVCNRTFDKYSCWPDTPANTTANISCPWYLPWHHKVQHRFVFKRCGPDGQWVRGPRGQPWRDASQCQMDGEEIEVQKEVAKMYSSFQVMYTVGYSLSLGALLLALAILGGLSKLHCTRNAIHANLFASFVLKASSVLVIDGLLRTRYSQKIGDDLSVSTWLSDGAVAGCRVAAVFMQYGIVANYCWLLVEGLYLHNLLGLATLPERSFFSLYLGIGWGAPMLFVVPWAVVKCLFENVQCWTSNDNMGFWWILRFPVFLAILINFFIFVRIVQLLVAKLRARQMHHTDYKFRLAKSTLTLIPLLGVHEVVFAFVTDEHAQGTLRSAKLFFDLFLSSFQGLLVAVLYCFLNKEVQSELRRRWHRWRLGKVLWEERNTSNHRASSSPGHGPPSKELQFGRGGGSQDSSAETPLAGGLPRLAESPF
Procedure, shortened: as §1

[3] = In vitro enzymatic stability against FaSSIF/P (pancreatin in FaSSIF, pH 6.5); assay type: in vitro ADME; conditions: simulated gi fluid, pH 6.5, Half-life (min)
Protocol: This study was conducted to determine the enzymatic stability of SEQ ID NOs. 77, 86, 87, 89, 90, and 91 after biotinylation in artificial intestinal environment. The test samples were prepared by mixing stock solutions of peptide and pancreatin dissolved in FaSSIF solution (pH 6.5) in a weight ratio of 25:1. The test samples were incubated at 37° C. for 120 min. The sampling from test samples was proceeded at the predetermined time points (10, 30, 60, and 120 min) and stopped by 10% TFA solution.
Analytical HPLC was performed to determine the remaining amount on an ACQUITY Premier system (Waters, USA) with an ACQUITY CSH C18 column (Waters, USA) at 35° C. using 0.1% TFA in water and acetonitrile. The remaining amount was determined as a percentage of the peak area at the sampling time point relative to the peak area of the initial sample.
For the stability against FaSSIF/P, the test samples were prepared by mixing stock solutions of peptide and pancreatin dissolved in FaSSIF solution (pH 6.5) in a weight ratio of 19:1. The test samples were incubated at 37° C. for 120 min. The sampling from test samples was proceeded at the predetermined time points (10, 30, 60, and 120 min) and stopped by 10% TFA solution.

[4] = molecular target: T3, human GLP-1R (Homo sapiens, UniProt P43220); test: cAMP assay (HitHunter cAMP) in GLP-1R-expressing CHO-K1 cells (GLP-1R+ cells); assay type: cell-based; conditions: Table 31
T3 construct: host or cells: CHO-K1
T3 sequence (P43220 24-463): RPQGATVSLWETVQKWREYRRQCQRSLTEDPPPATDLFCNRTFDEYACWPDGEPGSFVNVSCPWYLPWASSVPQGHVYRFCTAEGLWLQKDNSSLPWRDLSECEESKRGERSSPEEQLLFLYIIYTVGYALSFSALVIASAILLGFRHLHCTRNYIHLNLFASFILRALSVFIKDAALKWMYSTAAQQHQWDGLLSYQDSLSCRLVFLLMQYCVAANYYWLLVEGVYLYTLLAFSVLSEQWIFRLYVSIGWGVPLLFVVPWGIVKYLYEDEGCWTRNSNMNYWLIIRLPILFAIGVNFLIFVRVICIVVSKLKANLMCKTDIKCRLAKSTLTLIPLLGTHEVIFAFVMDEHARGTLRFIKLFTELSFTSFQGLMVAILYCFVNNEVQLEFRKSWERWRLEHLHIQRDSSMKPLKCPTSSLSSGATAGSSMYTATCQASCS
Procedure, shortened: as §1

[5] = molecular target: T4, human GLP-1 receptor (GLP-1R), expressed on CHO-K1 cells (human, UniProt P43220 24-463); test: cell-based or functional assay
[6] = molecular target: T5, human glucose-dependent insulinotropic polypeptide receptor (GIPR), expressed on CHO-K1 cells (human, UniProt P48546 22-466); test: cell-based or functional assay
T5 sequence (looked up): T1 sequence (P48546 22-466)

[7] = molecular target: T6, human glucagon receptor (GCGR), expressed on CHO-K1 cells (human, UniProt P47871 26-477); test: cell-based or functional assay
T6 sequence (P47871 26-477): as the sequence (P47871 26-477) above

[8] = molecular target: T4, human GLP-1 receptor (GLP-1R), …; test: cell-based or functional assay; remark: listed apart in the source
[9] = molecular target: T5, human glucose-dependent insulinotropic …; test: cell-based or functional assay; remark: listed apart in the source
[10] = molecular target: T6, human glucagon receptor (GCGR), …; test: cell-based or functional assay; remark: listed apart in the source
[11] = molecular target: T4, human GLP-1 receptor (GLP-1R), …; test: cell-based or functional assay; remark: listed apart in the source
[12] = molecular target: T5, human glucose-dependent insulinotropic …; test: cell-based or functional assay; remark: listed apart in the source
[13] = molecular target: T6, human glucagon receptor (GCGR), …; test: cell-based or functional assay; remark: listed apart in the source
[14] = molecular target: T4, human GLP-1 receptor (GLP-1R), …; test: cell-based or functional assay; remark: listed apart in the source
[15] = molecular target: T5, human glucose-dependent insulinotropic …; test: cell-based or functional assay; remark: listed apart in the source
[16] = molecular target: T6, human glucagon receptor (GCGR), …; test: cell-based or functional assay; remark: listed apart in the source

Row | Molecule | Ratio vs. GLP-1R [5] | Ratio vs. GLP-1R [6] | Ratio vs. GLP-1R [7] | Relative % to non-lipidated peptide [8] | Relative % to non-lipidated peptide [9] | Relative % to non-lipidated peptide [10] | Relative % to native ligand [11] | Relative % to native ligand [12] | Relative % to native ligand [13] | other results
1 | CSCC[C@H](NC(=O)[C@H](CCCCNC(=O)CCCC[C@@H]1SC[C@@H]2NC(=O)N[C@@H]21)NC(=O)[C@H](Cc1ccc(O)cc1)NC(=O)[C@H](CC(=O)O)NC(=O)[C@H](CC(C)C)NC(=O)[C@H](CC(C)C)NC(=O)[C@H](CCCCNC(=O)COCCOCCNC(=O)COCCOCCNC(=O)CC[C@H](NC(=O)CCCCCCCCCCCCCCCCC(=O)O)C(=O)O)NC(=O)[C@H](CO)NC(=O)[C@H](Cc1ccc(O)cc1)NC(=O)[C@H](CC(=O)O)NC(=O)[C@H](CO)NC(=O)[C@@H](NC(=O)[C@H](Cc1ccccc1)NC(=O)[C@@H](NC(=O)CNC(=O)[C@H](CCC(N)=O)NC(=O)C(C)(C)NC(=O)[C@@H](N)Cc1ccc(O)cc1)[C@@H](C)O)[C@@H](C)O)C(=O)N[C@@H](CCC(N)=O)C(=O)NC(C)(C)C(=O)N[C@@H](CC(=O)O)C(=O)N[C@@H](Cc1ccccc1)C(=O)N[C@H](C(=O)N[C@@H](CCC(N)=O)C(=O)N[C@@H](Cc1c[nH]c2ccccc12)C(=O)N[C@@H](CC(C)C)C(=O)N[C@@H](CC(C)C)C(=O)N[C@@H](CCC(=O)O)C(=O)NCC(=O)NCC(=O)N1CCC[C@H]1C(=O)N[C@@H](CO)C(=O)N[C@@H](CO)C(=O)NCC(=O)N[C@@H](C)C(=O)N1CCC[C@H]1C(=O)N1CCC[C@H]1C(=O)N1CCC[C@H]1C(=O)N[C@@H](CO)C(N)=O)C(C)C [compound 91] (H-Y[Aib]QGTFTSDYSK([AEEA-AEEA-γGlu-C18 diacid])LLDYK(Biotin)MQ[Aib]DFVQWLLEGGPSSGAPPPS-NH2; N-terminus and C-terminus assumed) |  |  |  |  |  |  |  |  |  | Ratio vs. GLP-1R, GIPR [1]: 970; Relative % to native ligand, GIPR [1]: 184%; Ratio vs. GLP-1R, GCGR [2]: 135; Relative % to native ligand, GCGR [2]: 26%; half-life [3]: 33.3 min; Ratio vs. GLP-1R, GLP-1R [4]: 100; Relative % to native ligand, GLP-1R [4]: 19%
2 | B1 | 100 | 149 | 18 | 100% | 100% | 100% | 495% | 738% | 91% | 
3 | B2 | 100 | 1 | 130 | 48% | 5% | 1% | 57% | 1% | 74% | 
4 | B3 | 100 | 54 | 1 | 35% | 13% | 3% | 174% | 93% | 3% | 
5 | B4 | 100 | 1120 | 152 | 100% | 100% | 100% | 638% | 7120% | 969% | 
6 | B5 | 100 | 3 | 8250 | 52% | 14% | 76% | 61% | 2% | 5030% | 
7 | B6 |  |  |  |  |  |  |  |  |  | Ratio vs. GLP-1R [14]: 100; Relative % to native ligand [14]: 35%; Ratio vs. GLP-1R [15]: 3240; Relative % to native ligand [15]: 1130%; Ratio vs. GLP-1R [16]: 80; Relative % to native ligand [16]: 28%
8 | B7 | 100 | 27 | 36 | 129% | 323% | 1% | 151% | 41% | 55% | 
9 | B8 | 100 | 31 | 15 | 100% | 100% | 100% | 1690% | 526% | 260% | 
10 | B9 | 100 | 11 | 5660 | 100% | 100% | 100% | 117% | 13% | 6650% | 
11 | B10 | 100 | 70 | 1 | 18% | 40% | 1% | 305% | 212% | 2% | 
